Results reported in the DeepSol protein solubility set.

Test: soluble on expression in E. coli; label from the status in PepcDB or PDB records

Sequence	soluble on expression in E. coli
MSLKEYTRPLEQGIDSDKNIFSVLEERVERTPDDNLVEYKNAQGEWAAFTAAEFKNKVVALAKGLIARGVMPGDSVSIIAHTCWQWTALDVAIMSIGALTVPVYETNSPAQVKMIFNDANVKMAFAEDDFQRDKIESVRDQCPDLGDVYVIGLGAIDTIIEYGRAVSDAEFLEREQAVKGSDLATIVYTSGSTGTPKGVELTHANFVFITYSGVNSMPDIAMKPNRRLLLFLPLAHVFARYMQFFCFAGNVSLGLSSNLKTILADFKAFKPTFILAVPRIFEKIYNAASQKAGAGFKGRVFADATQTACDWSHAQQSGGSIPLALNAKHALYNKLVYSSIMEVFGGHVEYAVSGGAPLDSSIAHFFNGVGLSLLEGYGMTETCAPSSVNPTEGYKIGTIGLPLQGVTMGVDEEGELCIKSPAVCAGYHNNPDVTKQQIVDGWLHTGDLGSIDDDGFVSIVGRKKDLIITAGGKNVSPCEMEASIMTSPVVSQCVMIGDRKPFIAAIISLDLAETNLWLESKGAEQVADLDEASKNPIVRAEVERAVNKANELASRAESIRKFEIVPDEFTEENGLVTPSMKARRQAVVEHYRTLIDKVIYVPRKPAAHAEEGHHHHHH	soluble
MASEMIVDHRQKAFELLKVDAEKILKLIRVQMDNLTMPQCPLYEEVLDTQMFGLSREIDFAVRLGLVDEKDGKDLLYTLERELSALHDAFTAK	soluble
GPLGSCDSGTGLTGNYSQDTLTVIATLREAIDLPQDAPNRQEVQDTARGQINDYISRYRRKGDAGGLKSFTTMQTALNSLAGYYTSYGARPIPEKLKKRLQLEFTQAERSIERGV	soluble
GDDYTQQQGEVEKQPNIDELKKRMEQSRLNKLRGDLDQLIESDPKLRALRPHLKIDLVQEGLRIQIIDSQNRPMFKTGSAEVEPYMRDILRAIAPVLNGIPNRISLAGHTDDFPYANGEKGYSNWELSADRANASRRELVAGGLDNGKVLRVVGMAATMRLSDRGPDDAINRRISLLVLNKQAEQAILHENAESQNEPVSVLQQHHHHHH	soluble
MSLATIKDVAQRAGVSPSTASRAMHGSKIISKPTRDKVIKAARELNYAPDFNAQNLATKASNTIGVVLPVDHHEIFSNPFFLEMIRGINEVCSKNGAMTTLATGISSDELVHNIDVMIAQGHIKTFILLYSEKNDPVVERLKQFDVQYVVIGKPYQDVNKTSYVDNDNIQAGTDAAQYLIDHGHRRIGFLYSDLSRMVQSDRMLGYQRVMMQNQLPNIMLEERFETHAAGVKTLHKFFEQYPDVTGFVAVDDMLALKLQQVLHNDPNWKVKQFSLIGFNNSIFSDLAHPMLTSIAVFPQRLGEEAAKIAMADHPADELSTAVIVPHQIVKRHSVHQIKSEGHHHHHH	soluble
MCMGIFKRVSNMVKAKVNNTLDEMENPIELLDQKIRDMEESLNKAKISSAQILGNAHEIEKKLQKARLESEDYDSKVKLAVKNGNDDLAKRALERKLDADKRESLQKSYEDASQKSKVIKDKLRTLEEEIEKTRAYRDEAAARFNNAEATKKVNEVLSNVDTGSNSINLDDIERKIERKEAMAEGLGDLRNEDSLEKEFEKLNETNLDDELAKYKNNIKLEHHHHHH	soluble
MARKKVQRKLDGWKSKEWYNIEAPAYLNRVIVGTTMAGDPSLLVGRNVETTVGELTNDMTKNNTKVILRVNNVVGDIATTDLMGHELTTDYVRSIVKRQTSRIDANVDVRTKDGFVIRVKPTCFTIKRARSSQMQAIREMMVDIVKKRASETDFETFMQEAILGRLSAAIYRQAKFIYPLRRVEIRKTQVEAMPAAAPAAPAAALEHHHHHH	soluble
MTKKDKKEVKVQTVTTEDGETVKVFEDLQGFETFIANETEDDDFDHLHCKLNYYPPFVLHESHEDPEKISDAANSHSKKFVRHLHQHIEKHLLKDIKQAVRKPELKFHEKSKEETFDKITWHYGEETEYHGRPFKIDVQVVCTHEDAMVFVDYKTHPVGAN	soluble
MGSDKIHHHHHHAQYTNIQTWGQKLYYNGSDYPGTFLKLKVAVANPRISGTGGKVVFYDSESSQYNYIEVKGVYQSSDARLKTNITPLNSGLGTILGLKPVSYNWKSETSQLRSAEAVPSKAFGFLAQEVAEVMPEIVTLSSTGDSLVDYTAVIPVLVQAVKELDATIQQLELQLDEKANLSDLQNNKNLTSKSLLSNAVMNQNTPNPFNSTTNISFTIPTSARSAFISICNLQGTQVKKFDIATRGEGSIMVSFSDLGVAGMYMYSLVVDGQLISTKRMLLVQ	not soluble
MAHHHHHHMATAADYVGKNCPYCGAIDSIETDEARGEAACVNCATVVAMGLEENVATRFEKDATYADVDRGGNVGWDPENGGAIGRATARNAGLTREEAAAAAAGLLRHPNAAASVTSAGPFGDTAKYAKTRLHPRMSAQLEVFFRLSRRHDEAILRDAIALAKHFVGFRRERGMRVEHQTEVAAASVMLAAEHLGQPIPLSEMRVLDGTLKDVESRRQEILDATNLGEEMAQMTKQYAPNLIHYYVRLLQLPLICYEMPCLALFRAIRQCESKPDPGASELAVFVEAEKVVMAVLLARTESRLQWPNKPPPPADPSAEPSRAILYSSFASRAHLQPARVEKLMRVAERSVPLIQPEFERLMQTPEFAVAAVHTMGEAVVSMTAKTEDTKSYAPVKSDPIPTSAPSAPNIARGNRKRSRSRSTTPQVPPSSASQER	not soluble
MAKEFGRPQRVAQEMQKEIALILQREIKDPRLGMMTTVSGVEMSRDLAYAKVYVTFLNDKDEDAVKAGIKALQEASGFIRSLLGKAMRLRIVPELTFFYDNSLVEGMRMSNLVTSVVKHDEERRVNPDDSKEDLEHHHHHH	soluble
MAHHHHHHMKIHIFLIATIYVLFSEKLIKWTTASTTQGGDTDTHPGTPPGEGSDVSQGAGQDASQGAGQDANPDPTLPKPPSPPADDTKDTGSQGDADSSSSKIEIPPLVKPENHKTIVSAMLKNYKGVKVTGTCGADFGLFLVPHIYVHVKSEDTEIELSSELAPPEMQTKFDKTQLKKFCVKDDTKKFDFIAYIYKDILVFKWKVYEEGLSKEQDVDEMKYLLPNLKQPITSIQVHSWTGTKESYILESKDYVLGEGMPEKCDAIATDCFLSGFTDIGKCFQCKLLMQEKNINDSCFKYVSSNQKELIKKQLKITAQDDEESSEYHLSESIKNLLKNIYKKNNDDNKKKELLHFENVNSALKSELLNYCNLLKEVNMNGVLKDHQLGNVQDVFNNLTKLLEEHKEENDNVLYHKMKNEALCLKNVNDWMKNKTGLLLPQLSYDLTYKNNNFTEFTQNKSYTSQNIVDKLYCNHEYCNRLKDHNNCISKINVEDQKNCALSWAFASKYHLETIKCMKGYEPLNASVLYVTNCLKNKNKDVCTEGSNPLVFLETIEEKGFLPTESNYPYDQSKVGDICPQLQNDWDNVFENTKVLDYNNGPFSVGTKGYIAYESEAFQKDMHSFVKLVKDEIMNKGSVIAYVKAENVLGYELNGKKVQNLCGDKTPDHVVNIVGYGNYINNKGEKKSYWIVRNSWGKYWGDDGYFKVDMYGPSTCEDNFIHTVVVFNVQVPINEKFDKKEHDIYNYYLKTSPEFYHNLYYKTFNS	not soluble
GHMIQESTMEMTNAQRLILSNQYKMMTMLDPANAERYRRLQTIIERGYGLQMRELDREFGELKEETCRTIIDIMEMYHALHVSWSNLQDQQSIDERRVTFLGFDAATEARYLGYVRFMVNVEGRYTHFDAGTHGFNAQTPMWEKYQRMLNVWHACPRQYHLSANEINQIINA	soluble
MKLVRPQKISDQVLSVLEERIAEGVYAEGGKIPPERVLAEEFGVSRPSVRSALNVLVARQVLEARQGDGYYVSVKPQQDFLQSWQELLGKHSNWEQDVFDFSCHIEGCMAALAAERRTDADLKRIGFWLEKFEEACESGNLEHQSEADVSFHQTIADAAHNLLFSHLSGGLLKMLYRQTRSSLIYLNQEEDPRPKLMAQHRVLYEAISNRRPGEASEAAKAHLNYVASSILKDREYQSRNRHADTLAQNDLKRVQDWAV	soluble
MAKPVVIGSRSFRTQSSALDHYKALLHRYQDGQRIADPADHTDLVALIERFDPVLDAVGEPAKGAGQIAHFERRLNTGIGWSTPGFWVVRQDGTETDFSYIDAVKGRPKGRSQDFYNACRQAVALDLVLAKKQAFAQYGDDQGRVECELTGKMVTIDDAHLDHAWPYFSHMVSGFRAARGWSRDIPDGIVSTPADGQTTATFLDSAVTEAFRAFHHDQAVLRVLSREANLQTASSARRPKVARPVRLA	not soluble
